Data from publication doi:10.1101/2025.02.27.640524 (bioRxiv, 2025).

Biological target: T1, VelB-GFP (full length A. nidulans Velvet-like B fused to GFP) (Aspergillus nidulans, UniProt C8VTS4 1-369)
T1 sequence: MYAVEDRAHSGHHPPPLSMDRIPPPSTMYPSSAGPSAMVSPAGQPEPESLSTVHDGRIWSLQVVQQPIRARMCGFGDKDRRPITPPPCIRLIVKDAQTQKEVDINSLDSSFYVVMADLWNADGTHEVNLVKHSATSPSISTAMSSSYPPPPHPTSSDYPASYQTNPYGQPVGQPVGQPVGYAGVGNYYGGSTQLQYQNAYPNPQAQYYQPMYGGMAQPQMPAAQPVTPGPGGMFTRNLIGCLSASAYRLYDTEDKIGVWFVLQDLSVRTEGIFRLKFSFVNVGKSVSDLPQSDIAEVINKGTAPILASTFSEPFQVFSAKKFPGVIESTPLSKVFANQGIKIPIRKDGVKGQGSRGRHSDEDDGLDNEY
Experiment: co-IP

B1: VosA-HA (A. nidulans VosA with HA tag) (natural protein)
chain: MSAANYPDPSLPRPSTSDDFELIVRQNPNRARVAGGKEKERKPVDPPPIVQIRVREEGTYLAQHYLQSPYFFMSCSLYDAQEDAPASIPPSTALTGTLVSSLHRLKDVDNTDGGFFVWGDLSIKVEGDFRLKFSLFEMRKTDVVFLKSIVSERFTVSPPKSFPGMAESTFLSRSFADQGVKLRIRKEPRTLIKRTAPRPEEYPQAAIPRSPSDRTAMQIPGSSYPAPPYQPTSRDYSYYAPVKRQRTSVDYGARGMYDADGRMRQMETYPQTATLYGQPGGYPTPMMGYPSGHGGVPDYAMSYGLPPSAQVPQMQDPAAQSRSSQQATMQSLGMVNPPGTPTPDSARAMMQQAYPRPQYSASTAVLPPLQQSRNYPQGTNGATRGYYEQSPQATPILPSQPLGTSEAERYGVPPGHTGYDHTGSANGTPR
  fold abundance of co-precipitated VosA against the VelB^ΔIDD-GFP strain: 10 fold
